Data taken from PMC3823998, “Structural and Functional Characterization of the Redβ Recombinase from Bacteriophage λ” (PLoS ONE, 2013).

Target: T1, Redβ WT (Bacteriophage λ (Enterobacteria phage λ), UniProt P03698 1-261)
T1 sequence: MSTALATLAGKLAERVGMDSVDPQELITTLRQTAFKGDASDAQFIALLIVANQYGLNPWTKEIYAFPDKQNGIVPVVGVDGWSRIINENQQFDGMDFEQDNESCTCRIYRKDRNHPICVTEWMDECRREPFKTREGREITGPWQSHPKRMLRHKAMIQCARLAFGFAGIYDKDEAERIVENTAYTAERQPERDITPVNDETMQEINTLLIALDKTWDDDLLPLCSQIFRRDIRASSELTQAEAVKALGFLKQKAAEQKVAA
Experiment: EMSA; glutaraldehyde-fixed; ssDNA EMSA: 10 nM DNA, 50 mM potassium phosphate pH 6.0, 5 mM EDTA, 5% glycerol, 0.1 mg/ml BSA, 37°C, 40 min, then 0.1% glutaraldehyde; second-strand EMSA: 5 nM each strand, 20 mM Tris-HCl pH 7.5, 5 mM MgCl2, 1 mM DTT, 0.1 mg/ml BSA, 37°C
Settings: protein: recombinant; tags: N-terminal His6 removed by thrombin; Gly-Ser-His left before Met1; label: 5' Cy3

B1: 50-minus ssDNA (ssDNA)
DNA: TGCGGATGGCTTAGAGCTTAATTGCTGAATCTGGTGCTGTAGCTCAACAT
B1: binds.
